Our source for the Kd values is CN116239684A (WUHAN ABCLONAL CO LTD, dated 2023).

As a reminder, the Kd is the equilibrium constant for the complex coming apart.

This experiment deals with 重组人CALR融合蛋白 (recombinant human calreticulin fusion protein, residues 18-203, Example 1) (human, UniProt P27797 18-203). The experiment is described as follows: SPR, Biacore 3000, curve fitting. For orientation: SPR reads the build-up and loss of mass on a sensor chip optically.
Sequence of 重组人CALR融合蛋白 (recombinant human calreticulin fusion protein, residues 18-203, Example 1) (P27797 18-203): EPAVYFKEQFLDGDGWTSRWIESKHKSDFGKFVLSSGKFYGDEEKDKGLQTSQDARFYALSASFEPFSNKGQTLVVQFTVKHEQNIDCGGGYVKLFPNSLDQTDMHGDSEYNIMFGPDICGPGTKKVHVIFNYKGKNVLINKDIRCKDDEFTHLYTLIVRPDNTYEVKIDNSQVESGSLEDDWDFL

B1: 兔单克隆抗体2G2 (rabbit monoclonal antibody 2G2 against human calreticulin) (antibody, V domains shown)
VH: QEQLEESGGGLVQPEGSLTLTCTASGFSINNNYWICWVRQAPGKGLEWVGCISIADNSNTYYATWAKGRVTISKTSSTTVTLQMTSLTAADTATYFCARGPAVISFNLWGPGTLVTVSS
VL: AQVLTQTPSSTSAAVGGTVTINCQASESVYGNNRLAWYQQKPGQPPKRLIYDASTLASGVPSRFSGSGSGKQFTLTMSGVQCDDAATYYCIGHFYSGINSISFGGGTEVVVKG
notes: Recombinant rabbit IgG made in 293F cells; also called 2G2抗体; 兔抗人CALR单克隆抗体2G2
Take B1: the Kd came to 4.88 nM.

B2: 兔单克隆抗体3B3 (rabbit monoclonal antibody 3B3 against human calreticulin) (antibody, V domains shown)
VH: QSLEESGGGLVQPEGSLTLTCTASGFSFSSSYWICWVRQAPGKGLEWIGCISIDDNSNTYYASWAKGRVTISKTSSTTVTLQMTSLTAADTATYFCARGPGIIFYNLWGPGTLVTVSS
VL: AQVLTQTPSSTSAAVGGTVTINCQASESVYNNNRLAWYQQKPGQPPKRLIYDASKLASGVPSRFKGSGSGKQFTLTMSGVQCDDAATYYCIGHFYTSINSVTFGGGTEVVVKG
notes: Recombinant rabbit IgG made in 293F cells; also called 3B3抗体; 兔抗人CALR单克隆抗体3B3
In the case of B2, the Kd was 4.34 nM.
